Measurements reported in the nanobody polyreactivity screen of Harvey et al. (2022).

Test: yeast display, Sf9 membrane polyspecificity reagent, FACS + sequencing; frameworks hold sequencing errors
How it was run: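 In a synthetic yeast display library (Saccharomyces cerevisiae BJ5465), nanobody expression was induced with galactose for 36–48 hours. FACS gates were set low and high (top ~1%) using anti-HA fluorescence for expression and streptavidin fluorescence for binding of the Sf9 membrane reagent. Each polyreactivity label is drawn from the gate of origin.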

QVQLVESRGGLVQAGGSLRLSCSASGIIFEYYAMGWYRQAPGKERELVAAISSDTSTNYADSVKGRFTISRDNAKNTVYLQMNSLKPEDTAVYYCNADAYYDTYGICVGTDYDYWGQGTQVTVSS
polyreactivity (PSR sort gate): low polyreactivity

QVQLVESGGGLVQAGGSLRLSCAASGRIFSQNAMGWYRQAPGKERELVAAISGGSTNYADSVKGRFTISRDNAKNTVYLQMNSLKPEDTAVYYCAVRWYFYHRSVEYDYWGQGTQVTVSS
polyreactivity (PSR sort gate): low polyreactivity

QVQLVESGGGLVQAGGSLRLSCAASGRTFPGNAMGWYRQAPGKERELVAAITRVGSTYYADSVKGRFTISRDNAKNTVYLQMNSLKPEDTAVYYCAADRLEGYYEDDATGFDYWRQGTQVTVSS
polyreactivity (PSR sort gate): low polyreactivity

QVQHVESGGCLVQAGGSLRLSCAASGRIFRGYAMGWYRQAPGKERELVAAISSRGSTYYADSVKGRFTNSRDNAKNTVYLQMNSLKPEDTAVYYCAKSEYARLSGFRYRTGYNYWGQGTQVTVSS
polyreactivity (PSR sort gate): high polyreactivity

QVQLVESGGGLVQAGGSLRLSCAASGITFVTYAMGWYRKAPGKERELVAAISRSGGRTYYADSVKGRFTISRDNAKNTVYLQMNSLKPEDTAVYYCAAERKNKYDYWGQGTQVTVSS
polyreactivity (PSR sort gate): high polyreactivity

QVQLVESGGGLVQAGGSLRLSCAASGRIFGYNTMGWYRQAPGNERELVATITGAGSTNYADSVKGLFTISRDNAKNTVYLQMNSLKPEDTAVYYCAASVRWPRVSQRARYGYYYWGQGTQVTVSS
polyreactivity (PSR sort gate): high polyreactivity

QFQLVESGGGLVQAGGSHRLSCAASGFIFYYYAMGSYRQAPGKERELVAVLTESGSSTYYADSVKGRFTFSRDNAKNTVYLQMNSLKPVDTAVYYCNADFWPYTGKYDYWGQGTQVTVSS
polyreactivity (PSR sort gate): low polyreactivity

QVQLVESGGGLDQAGGSHRLSCAASGSNLSGYAMVWYRQAPGKERELVADISWTGGSTYYADSVKGRLTISRDNAKNTVYLQMISLKPEVTAVYYCATRSGYRRSRVIYYHDDYGYWGQGTQVTVSS
polyreactivity (PSR sort gate): high polyreactivity

QVQLVESGGGLVQAGGSLRLSCAASGNTFSRYAMGWYRQAPGKERELVAAISYSTGSTRYADSVKGRFTISRDNAKNTVYLQMNSLKPEDTAVYYCAARAKSRGYWGQGTQVTVSS
polyreactivity (PSR sort gate): high polyreactivity

QVQLVESGGRLVQAGGSLRLTCASSGRIFRYYAMGWYRQAPGKERQLVAAISSSGGSTYYADSVKGRFTISRDNAKNTVYLQMNSLKPEDTAVYYCAARYHIDTLFYGSRYDYWGQGTQVTVSS
polyreactivity (PSR sort gate): high polyreactivity

QVQLVESGGGLVQAGGSLRLSCAASGFIFIQNDMGWYRQAPGKEREFVASISKDGGRTYYADSVKGRFTISRDNAKNTVYLQMNSLKPEDTAVYYCNTYPRGNWGNFVEQDYDYWGQGTQVTVSS
polyreactivity (PSR sort gate): low polyreactivity

QVQLVESGGGLVQAGGSLRLSCAASGLIIGVYAMGWYRQAPGKERELVAAITDGGSTYYADSVKGRFTISRDNAKNTVYLQMNSLKPEDTAVYYCNKLYTRVGFTFEYWGQGTQVTVSS
polyreactivity (PSR sort gate): low polyreactivity

QVQLVESGGGSVQAGGSLRLSCAASGFTIRTYAMGWYRQAPGKERELVAAITSSGSSTYYAYSVKGRFTISRDNAKNTVYLQMNSLKPEDTAVYYCAADAPRSYRFGYWGQGTQVTVSA
polyreactivity (PSR sort gate): high polyreactivity

QVQLVESGGGLVQAGGSLRLSCAASGRTFYYYTMGWYRQAPGKDRELVAAIRGSGGSTYYADSVKGRFTISRDNAKNTVYLQMNSLKPEVTAVYYCNATRRRSARYGYISAYDYWGQGTQVTVSS
polyreactivity (PSR sort gate): high polyreactivity

QVQLVESGGGLVQAGGSLRLSCAASGSTFESYAMGWYRQAPGKERELVAAISRRGGRTYYADSVKGRFTISRDNAKNTVYLQMYSLKPEDTAVYYCATDSSYYGSDDYWGQGTQVNVSS
polyreactivity (PSR sort gate): high polyreactivity

QVQLVESGGGLVQAGGSLRLSCAASGRTFQLYAMGWYRQAPGKERELVAAITTRADRTYYADSVKGRFTISRDNAKNTVYLQLNSVKPEDTAVYYCAASYSRTYFREDYCGQGTQVTVSS
polyreactivity (PSR sort gate): low polyreactivity

QVQLVESGGGLVQAGGSLRLSCAASGYIFDRNAMGWYRQAPGKERELVAAITKRGGITYYADSVKGRFTISRDNAKNTVYLQMNSLKPEDTAVFYWNALARSSRYDYWGQGTQVTVSS
polyreactivity (PSR sort gate): high polyreactivity

QVQLVESGGGLVQAGGSLRLSCAASGRTLYRYTMGWYRQAPGKERELVAAISRGGSTYYADSVKGRFTISRDNAKNTVYLQMNSLKPEDTAVYYCAAVYSYTSWQTWWPEYDYWGQGTQVTVSS
polyreactivity (PSR sort gate): high polyreactivity

QVQLVESAGGLVQAGGSLRLSCAASGRTFIQYAMGWYRQAPGKERELVAVIRWSGGRTYYADTVKGRFTISRDNAKNTVYLQMNSLKPEDTAVYYCAKRSGSTFDWGQGTQVTVSS
polyreactivity (PSR sort gate): high polyreactivity

QVQLVDSGGGLVQAGGSLRLSCAASGSTFRYNAMGWYRQAPGKERELVAAIDKRGDSTYADSVKGRFTISRDNAKNTVYLQMNSLKPEDTAVYYCAADSDSKYNYGFLWDTYEYWGQGTQVTVSS
polyreactivity (PSR sort gate): low polyreactivity

QVQLVESGGGLGQAGGSLRLSCAASGITFYPNGMGWYRPAPGKEREFVAAITSSGGSTYYADSVKGRFTISRDNAKNTVYLQMNSLKPEDTAVYYCAAQYYPISYYGYGYWGQGTQVTVSS
polyreactivity (PSR sort gate): low polyreactivity

QVQLVESGGGLVQAGGSLRLSCAASGFIFKYYAMGWYRQAPGKERELVAAISRSGGSTYYADSVKGRFTISRDNAKNTVYLLMNSLKPEDTAVYYCAADSSWVHEYYYWGQGTQVTVSS
polyreactivity (PSR sort gate): high polyreactivity

QVQLVESGGGLVQAGGSLRLSCAASGRTFWSNAMGWYRQAPGKERELVATISSGGGNTYYADSVKGRFTISRDNAKNTVYLQLNSLKPEDTAVYYCAATKYRWTYAASFGYWGQGTQVTVSS
polyreactivity (PSR sort gate): high polyreactivity

QDQHVESGGGLVQAGGSLRLSCAASGLTFGTYAKGWYRQAPGKERELVAAITTGARTYFADSVKGRFTISRDNAKNTVYLKMNSLKPEDTAVYYCAAYKFYSEYEYWGQGTQVTVSS
polyreactivity (PSR sort gate): high polyreactivity

QVQLVESGGGLVQAGGSLRLSCAASGSTFRKYGMGWYRQAPGKERELVARITSSTGTTYYADSVKGRFTISRDNAKNTVYLQMNSLKPEDTAVNYCNARVRYREWGLYYYWGQGTQVTVSS
polyreactivity (PSR sort gate): high polyreactivity

QVQLVESGGGLVQAGGSLRLSCAASGRIFRLYVMGWYRQAPGKERELVARIRIRDSNTYYADSVKGRFTISRDNAKHTVYLQMNSLKPEDTAVYYCAVVATYVYSKYDYWGQGTQVTVSS
polyreactivity (PSR sort gate): low polyreactivity

QVHLVESGGGLVQAGGSLLLSCAASGGTFAAYAMGWYRQAPGKERELVAAIDSGGTTKYADSVKGRFTISRDNAKNTVYLQMSCLKPEDTAVYYCAAVYRITFGYHTSRAFDYWGQGTQVTVSS
polyreactivity (PSR sort gate): low polyreactivity

QVQLVESGGGLVQAGGSLRLSCAASGSISSYYAMGWYRQAPGQERELVAAITLNGGNTYYADSVKGRFTISRDNAKKTVYLQMNSLKPEDTAVYYCARRYRYGTKYYYWGQGTQVTVSS
polyreactivity (PSR sort gate): high polyreactivity

QVQLVESGGGLVQAGGSLRLSCAASGSIFLRYAMGWYRQAPGKESELVARISWSGGSTYYADSVKGRFTISRDNAKNTVYLQMNSLKPEDTAVYYCAAGFRAYGELDYWGQGTQVTVSS
polyreactivity (PSR sort gate): low polyreactivity

QVQLVETGGGLVQAGGSLRLSCASSGSIFRAYAMGWYRQAPGNERELVAYISRSGGSTYYADSVKGRFTISRDNAKNTVYLQMNSLTQEDTAFYYCAAVFYLYSNLYGEYDYWGQGTQVTVSS
polyreactivity (PSR sort gate): low polyreactivity

QVQLVESGGGLVQAGGSLRLSCAGSGFTFIIYAMGWYREAPGKERELVAAITRSGGSTYYADSVKGRFTISRDNAKNTVYLQMNSLKPEDTAVYYCAAALSVRFYFWGQGTQVTVSS
polyreactivity (PSR sort gate): high polyreactivity
